Laboratory results published in paper PMC11384143 (2024).
Like-named read-outs stand apart in the source and are kept apart here. One block for each binder: values may come before it.

B4: 6 × His tagged huSIRPγ ECD recombinant protein (domain or fragment)
chain: EEELQMIQPEKLLLVTVGKTATLHCTVTSLLPVGPVLWFRGVGPGRELIYNQKEGHFPRVTTVSDLTKRNNMDFSIRISSITPADVGTYYCVKFRKGSPENVEFKSGPGTEMALGAKPSAPVVLGPAARTTPEHTVSFTCESHGFSPRDITLKWFKNGNELSDFQTNVDPTGQSVAYSIRSTARVVLDPWDVRSQVICEVAHVTLQGDPLRGTANLSEAIRVPPTLEVTQQPMRVGNQVNVTCQVRKFYPQSLQLTWSENGNVCQRETASTLTENKDGTYNWTSWFLVNISDQRDDVVLTCQVKHDGQLAVSKRLALEVTVHQKDQSSDATP

Experiments:
[1] = biological target: B4; test: SPR
[2] = biological target: B4; test: SPR
[3] = biological target: T1, 6 × His tagged huSIRPα V1 ECD recombinant protein (human, UniProt P78324 31-373); test: SPR
[4] = biological target: T1, 6 × His tagged huSIRPα V1 ECD …; test: SPR; remark: listed apart in the source
[5] = biological target: huSIRPα V2 overexpressed on CHOK1/hSIRPα V2 cells (human, UniProt P78324 31-504); test: FACS; competition with huCD47 ECD
[6] = biological target: huSIRPα V1 overexpressed on CHOK1/hSIRPα V1 cells (human, UniProt P78324 31-504); test: FACS; competition with huCD47 ECD
ES004-B5 [7] = test: SPR
ES004-B5 [8] = test: SPR; remark: listed apart in the source

T1 sequence (P78324 31-373): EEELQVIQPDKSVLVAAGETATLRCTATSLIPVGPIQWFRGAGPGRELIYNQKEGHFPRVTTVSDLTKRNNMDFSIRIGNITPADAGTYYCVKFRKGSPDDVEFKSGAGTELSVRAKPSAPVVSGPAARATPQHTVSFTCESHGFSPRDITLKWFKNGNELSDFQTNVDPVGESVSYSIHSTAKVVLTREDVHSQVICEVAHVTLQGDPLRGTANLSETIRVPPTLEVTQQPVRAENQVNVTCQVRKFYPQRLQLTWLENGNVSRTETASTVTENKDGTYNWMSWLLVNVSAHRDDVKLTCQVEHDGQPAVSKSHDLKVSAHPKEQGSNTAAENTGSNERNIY
huSIRPα V1 overexpressed on CHOK1/hSIRPα V1 cells, sequence (P78324 31-504): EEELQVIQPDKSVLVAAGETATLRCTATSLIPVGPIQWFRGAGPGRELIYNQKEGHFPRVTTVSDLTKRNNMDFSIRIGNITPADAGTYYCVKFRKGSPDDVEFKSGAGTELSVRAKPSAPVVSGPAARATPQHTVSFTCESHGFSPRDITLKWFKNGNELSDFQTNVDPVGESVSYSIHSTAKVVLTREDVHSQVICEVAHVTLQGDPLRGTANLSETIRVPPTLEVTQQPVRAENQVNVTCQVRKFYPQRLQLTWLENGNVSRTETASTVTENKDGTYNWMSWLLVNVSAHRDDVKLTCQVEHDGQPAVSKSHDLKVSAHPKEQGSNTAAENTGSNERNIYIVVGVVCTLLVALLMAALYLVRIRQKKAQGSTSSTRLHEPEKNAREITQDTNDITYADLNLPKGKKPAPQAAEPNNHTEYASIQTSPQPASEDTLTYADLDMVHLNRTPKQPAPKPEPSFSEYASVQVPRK
huSIRPα V2 overexpressed on CHOK1/hSIRPα V2 cells, sequence (P78324 other isoform, or with tags, fused parts or gaps): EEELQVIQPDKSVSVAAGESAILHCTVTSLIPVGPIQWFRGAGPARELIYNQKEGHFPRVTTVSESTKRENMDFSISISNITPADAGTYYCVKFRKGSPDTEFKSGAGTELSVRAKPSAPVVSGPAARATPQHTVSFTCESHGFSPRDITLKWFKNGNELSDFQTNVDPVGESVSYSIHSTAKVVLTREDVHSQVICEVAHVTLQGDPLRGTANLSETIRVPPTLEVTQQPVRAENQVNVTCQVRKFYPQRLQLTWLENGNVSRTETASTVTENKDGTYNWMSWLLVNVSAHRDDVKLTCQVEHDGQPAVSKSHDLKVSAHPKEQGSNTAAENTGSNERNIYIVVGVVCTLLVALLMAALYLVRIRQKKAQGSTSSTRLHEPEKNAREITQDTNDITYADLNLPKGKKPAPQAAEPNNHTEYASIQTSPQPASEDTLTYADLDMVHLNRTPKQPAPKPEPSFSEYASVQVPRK

B3: 6 × His tagged cynomolgus SIRPα ECD recombinant protein (domain or fragment)
chain: EEELQVIQPEKSVSVAAGDSATLNCTVSSLIPVGPIQWFRGAGPGRELIYNLKEGHFPRVTPVSDPTKRNNMDFSIRISNITPADAGTYYCVKFRKGSPDVELKSGAGTELSVRAKPSAPVVSGPAVRATAEHTVSFTCESHGFSPRDITLKWFKNGNELSDVQTNVDPAGKSVSYSIRSTARVVLTRRDVHSQVICEVAHVTLQGDPLRGTANLSEAIRVPPFLEVTQQSMRADNQVNVTCQVTKFYPQRLQLTWLENGNVSRTEMASALPENKDGTYNWTSWLLVNVSAHRDDVKLTCQVEHDGQPAVNKSFSVKVSAHPKEQGSNTAAENTGTNERN
- Kd (ES004-B5 [7]): 6.01 nM
- koff (ES004-B5 [7]): 0.00729 s⁻¹

Binder: B4
- Kd (ES004-B5 [8]): 2.81 nM
- koff (ES004-B5 [8]): 0.00422 s⁻¹

More lines, now with the values ahead:

- koff [1]: 0.0135 s⁻¹
- Kd [2]: 20.7 nM
- koff [3]: 0.00187 s⁻¹
- Kd [4]: 1.91 nM
- IC50 [5]: 6.04 nM
- IC50 [6]: 1.17 nM
B1: hu1H9 (an analogue of FSI-189, Gilead) (antibody, V domains shown)
VH: QVQLVQSGAEVKKPGASVKVSCKASGYTFTSYWITWVKQAPGQGLEWIGDIYPGSGSTNHIEKFKSKATLTVDTSISTAYMELSRLRSDDTAVYYCATGYGSSYGYFDYWGQGTLVTVSS
VL: DIQMTQSPSSLSASVGDRVTITCRASENIYSYLAWYQQKPGKAPKLLIYTAKTLAEGVPSRFSGSGSGTDFTLTISSLQPEDFATYYCQHQYGPPFTFGQGTKLEIK

- koff [3]: 0.00631 s⁻¹
- Kd [4]: 12.8 nM
- IC50 [6]: 1.29 nM
B2: HEFLB (an analogue of BI 765063) (antibody, V domains shown)
VH: EVQLVQSGAEVKKPGESLRISCKASGYSFTSYWVHWVRQMPGKGLEWMGNIDPSDSDTHYSPSFQGHVTLSVDKSISTAYLQLSSLKASDTAMYYCVRGGTGTLAYFAYWGQGTLVTVSS
VL: DVVMTQSPLSLPVTLGQPASISCRSSQSLVHSYGNTYLYWFQQRPGQSPRLLIYRVSNRFSGVPDRFSGSGSGTDFTLKISRVEAEDVGVYYCFQGTHVPYTFGGGTKVEIK
